Reference: US20070037156

Tested on: gelatin

Substance: 279Arg rare variant of MMP-9 (matrix metalloproteinase-9)
- MMP-9 activity by zymography (gelatin in the polyacrylamide gel): Activity in both lanes 1 and 2 of FIG. 4 is similar

Substance: 279Gln common variant of MMP-9 (matrix metalloproteinase-9)
- MMP-9 activity by zymography (gelatin in the polyacrylamide gel): Activity in both lanes 1 and 2 of FIG. 4 is similar
